± gives the uncertainty stated by the source.

This data set in a line: amyloid nucleation score (Sup35N fusion, yeast selection) (log enrichment); library NNK2; higher = more nucleation; inactive = no reads after selection. The procedure, abridged:
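The nucleation score is the log enrichment of output over input reads, calculated with DiMSum and centred on the mode score of non-aggregating sequences. Sequences with under 100 input reads were excluded. Reads came from Illumina sequencing of plasmid inserts from psi-negative yeast expressing Sup35N fused to peptides of 20 random codons, induced 24 hours with 100 μM copper sulfate and grown 7 days at 30°C without adenine and uracil.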
VYIVHVPSQFWL came in with an amyloid nucleation score of 6.37 ± 0.08.

In turn, WLGYEEGG came in with an amyloid nucleation score of 0.508 ± 0.62.

Substance RHDLWAPRTERMMVYMCTAA yielded an amyloid nucleation score of 0.544 ± 0.26.

PSFSFVMTLVNFRPDFLSMH came in with an amyloid nucleation score of -1.2 ± 0.78.

For NGGINNSWWGLIFLNLWPTI, the amyloid nucleation score was -0.592 ± 0.79.

Substance RTVDELTRRWWSKRRMGMSW displayed an amyloid nucleation score of 2.03 ± 0.25.

On to KEFYGKRIFRCLYDVLVVLF, for which the amyloid nucleation score was -1.25 ± 0.54.

VWRPRTFLLIHYVVKDKRTP registered an amyloid nucleation score of -0.507 ± 0.79.

With RMKVDTLIWTPDWMEFVSII, the amyloid nucleation score was -0.824 ± 1.1.

With IFVLNKQNYLRIYNVPPLLI, the amyloid nucleation score amounted to 5.667 ± 0.05.

RMNYTTEIGHSGFSGNIWTG yielded an amyloid nucleation score of -0.45 ± 0.78.

TGPGSFFRRSGDTHLYSRDG: the amyloid nucleation score result is “inactive”.

DQLWRIRYWLLTDVGRNRIF: the amyloid nucleation score worked out at 0.343 ± 0.38.

As for MSGSDNLILYSSV, the amyloid nucleation score is -0.212 ± 0.45.

Regarding MCVCCYSIRGLVTGWLWLMA, the amyloid nucleation score stood at 4 ± 0.061.

For RVRGSSVSISKLNKCKVVDT, the amyloid nucleation score came to 3.33 ± 0.091.

For the substance PWRRISMVVSWQYIEFIKYL, the amyloid nucleation score is -0.832 ± 0.78.

MRCNFADSAYRMISMTV showed an amyloid nucleation score of 0.412 ± 0.55.

Turning to CKCYTAQCWVSRNLMKRPLT, the amyloid nucleation score is 0.579 ± 0.49.

Regarding MYNRSRLSFA, the amyloid nucleation score is -0.666 ± 1.

ITCLWRAWNAVLRRGHYKTS returned an amyloid nucleation score of 0.615 ± 0.51.

SNNMFWFLNYYVGIYMWISP had an amyloid nucleation score of -1.21 ± 0.75.

As for SRACRFTFD, the amyloid nucleation score is 0.49 ± 0.42.

Take KYDGAFQRGGIIQISYLCLW: the amyloid nucleation score turned out to be 4.87 ± 0.071.

As for WLNLARDWKWKSDINFWKVH, the amyloid nucleation score entry was “inactive”.

In the case of SMEVAFSELSKVKRTTCVDY, the amyloid nucleation score entry is “inactive”.

As for RTTGTLLMRAESALPGRVVN, the amyloid nucleation score stood at 5.762 ± 0.055.

Take VNGWDWQRYLRILKCFVVY: the amyloid nucleation score is 0.615 ± 0.36.

The substance WHTYSRCSFRKRAGSLVAFP returned an amyloid nucleation score of 0.365 ± 0.28.

YQGMFKFRRFDNVSVVHAMR had an amyloid nucleation score of -0.359 ± 0.76.

SEYVDFYGFLGLVFTLRRSA came in with an amyloid nucleation score of 0.43 ± 0.64.

In the case of GRRLSGILRRDGGANGCHRR, the amyloid nucleation score was found to be 0.098 ± 0.42.

The substance TGHKFPLRGSMRVVLDFFSR registered an amyloid nucleation score of 3.09 ± 0.089.

The substance SYFSVKHDRR gave an amyloid nucleation score of -0.228 ± 0.35.

Regarding ASMDSSVPRAGDAGRSDMSS, the amyloid nucleation score is 2.26 ± 0.14.

RYNFYRLNLSRAVASDETCV returned an amyloid nucleation score of -0.854 ± 0.34.

Substance HRVYEFIKPLGPGAHTFVFT came in with an amyloid nucleation score of 0.097 ± 1.1.

RRGIASILGHYRGTKMTGFD gave an amyloid nucleation score of 0.135 ± 0.56.

In the case of GLHEVR, the amyloid nucleation score turned out to be 0.042 ± 0.65.

Turning to YHEIFF, the amyloid nucleation score was -0.243 ± 0.4.

GMSTRQFKLLPGCREVMRAG displayed an amyloid nucleation score of 0.571 ± 0.64.

In turn, FNMVNTILMNGPSCWLQSVP gave an amyloid nucleation score of 0.21 ± 0.63.

Turning to HRVQSGLCSKNSRE, the amyloid nucleation score stood at 2.96 ± 0.15.

YTAQRLNSTYI returned an amyloid nucleation score of -0.506 ± 1.

The substance HASTEIGSWL registered an amyloid nucleation score of 0.552 ± 0.42.

Regarding FTSSYKSAVRTLIFVLSESG, the amyloid nucleation score was determined as 0.331 ± 0.36.

Turning to MISCSLSFSLAPQDELRSCK, the amyloid nucleation score result was “inactive”.

The substance WSRFSCRT showed an amyloid nucleation score of 1.24 ± 0.2.

LYVCHKICSSCLKGW came in with an amyloid nucleation score of -1.11 ± 0.61.

As to RMPGWY, the amyloid nucleation score entry was “inactive”.

Substance IAVYTYLAGAWKHLETLAFP displayed an amyloid nucleation score of 3.8 ± 0.1.

In the case of YGSLVYVPAYGEISL, the amyloid nucleation score was -0.921 ± 0.5.

On to DRHRFIHFYAQGERKLSRTM, for which the amyloid nucleation score is -0.358 ± 0.79.

Turning to AGRLLGNVGNWRANEGAGGD, the amyloid nucleation score was -0.833 ± 1.1.

The substance WPFPKSRNRS gave an amyloid nucleation score of -0.076 ± 0.79.

As to LWLIKARYFLELRRLESIRQ, the amyloid nucleation score was 0.208 ± 1.1.

With QDDGM, the amyloid nucleation score was -0.826 ± 0.41.

With LCRYARCLIVSFVRIFGCCL, the amyloid nucleation score was -0.47 ± 1.1.

SSQTKYQAFRVQATGVCAWM showed an amyloid nucleation score of -0.123 ± 0.23.

In turn, CYCSSL had an amyloid nucleation score of -0.253 ± 0.2.

HYLAFVCIIFSLLRLITQPM: the amyloid nucleation score was determined as 2.53 ± 0.18.

On to TASPSILTSKVTRYNLTVGC, for which the amyloid nucleation score is -0.072 ± 0.5.

As to MNGIFVNLKSKIRTFCRSVY, the amyloid nucleation score is 2.67 ± 0.11.

Consider RQARSCIVGDGSWRGCLIKV, for which the amyloid nucleation score came out at 1.11 ± 0.26.

Consider LSQQSSMLKDRITDICGDLL, for which the amyloid nucleation score was 1.4 ± 0.33.

The substance LIYPANDANNSTR yielded an amyloid nucleation score of -0.616 ± 0.64.

With RYGERIFV, the amyloid nucleation score is 0.627 ± 0.43.

With NNMPFCNYEAFNFYNGMSAF, the amyloid nucleation score is -1.55 ± 1.1.

The substance LRLFNLKQKKNRKNWRMFAG yielded an amyloid nucleation score of -0.979 ± 0.6.

In the case of RNPVTSIVQVHDKMGRRSKS, the amyloid nucleation score result was “inactive”.

With ANLRNSW, the amyloid nucleation score was -0.82 ± 0.56.

As for RIDRFLFASGHEGYAVN, the amyloid nucleation score was determined as 4.507 ± 0.033.

Substance QFRAWWFTSVDRTPSDNHTV registered an amyloid nucleation score of 4.99 ± 0.059.

YFKFFWNAQMLGCA: the amyloid nucleation score entry is “inactive”.

As to FGTYSI, the amyloid nucleation score turned out to be 0.389 ± 0.74.

LGSDMRLRMTYCPKRCVRWH came in with an amyloid nucleation score of 2.77 ± 0.14.

For the substance VFACLNVLSLMNEDFFVMSD, the amyloid nucleation score was -0.708 ± 0.54.

For the substance ADCFWAIDYPTWAYRIYGSH, the amyloid nucleation score result is “inactive”.

Consider TMYFWLMSLVWLLSVSFRAW, for which the amyloid nucleation score was determined as 2.54 ± 0.1.

As for FVGVYMVLRSLGDRVSYVMF, the amyloid nucleation score entry was “inactive”.

Regarding QLNVIDIYTSGWISFP, the amyloid nucleation score was -1.06 ± 0.26.

In turn, SFNFEVEWRRASNLSFRWGR had an amyloid nucleation score of 0.039 ± 0.61.

With PNERFVSTLWCRDVCDPWSW, the amyloid nucleation score is 0.798 ± 0.51.

The substance YNCCVKISVSM showed an amyloid nucleation score of 5.481 ± 0.042.

In turn, EDLWWVQLSNLKDSVDEYCR came in with an amyloid nucleation score of 0.007 ± 0.21.

In turn, KFFMDYNGILDFWFRTREKD had an amyloid nucleation score of -0.375 ± 0.74.

The substance SLDQFSFGC yielded an amyloid nucleation score of 0.027 ± 0.65.

In turn, RTDVFWNRMQRDSLFKPNAT came in with an amyloid nucleation score of 0.192 ± 0.44.

Regarding LDPLRPG, the amyloid nucleation score worked out at 1.14 ± 0.39.

Substance LVFVAGRILMMIFFVSGLAI returned an amyloid nucleation score of 2.59 ± 0.09.

The substance VSMRMVHGDYKWGRGCLIWI registered an amyloid nucleation score of -0.196 ± 0.45.

Take LSQCYSRLLVSTMKSH: the amyloid nucleation score came to 0.854 ± 0.14.

As to FVDVKHDVVKAMRLWFR, the amyloid nucleation score was -0.632 ± 1.1.

PGSVTGMLWSGTFEVRYLGL yielded an amyloid nucleation score of 0.101 ± 0.26.

As for RLRDDENIGIFMTF, the amyloid nucleation score was -1.15 ± 1.

The substance VPSTIWMTR returned an amyloid nucleation score of 0.585 ± 0.38.

As to GESSPE, the amyloid nucleation score is 0.343 ± 0.8.

NGQFGTSHGMVGTGVSLRG showed an amyloid nucleation score of -0.012 ± 0.65.

The substance LECCG showed an amyloid nucleation score of -0.838 ± 0.55.

As to REGYNAIMYDV, the amyloid nucleation score was -1.27 ± 0.62.

SVRFPITVMFRFSRWFTETY: the amyloid nucleation score is -0.264 ± 0.37.

Substance FRYFDWCIFYSYLLVCY registered an amyloid nucleation score of -1.96 ± 1.1.

Turning to CFLELYSWFKDAVTTFN, the amyloid nucleation score entry is “inactive”.

Substance RYYGRPFRVLYRWSVREYYT registered an amyloid nucleation score of 4.395 ± 0.04.

Regarding YKWSQASTNGHARISSAQQS, the amyloid nucleation score was found to be 2.46 ± 0.11.

Regarding DLITLMKSAIPQPNMRLNSL, the amyloid nucleation score turned out to be 0.105 ± 0.57.

Regarding VTKHLGEARKLVLDQRLHWG, the amyloid nucleation score stood at 5.601 ± 0.047.

In the case of VLYVGWFRAKDNIVFLTYGC, the amyloid nucleation score was -0.158 ± 0.61.

RFVKSRRATILSNDG returned an amyloid nucleation score of -0.198 ± 0.39.

Regarding TRNSFRSSLWVLRGGCV, the amyloid nucleation score is -0.523 ± 0.37.

MRYEFVLFLRFRGSDTKGRD yielded an amyloid nucleation score of -0.124 ± 0.33.

AVMWTK gave an amyloid nucleation score of 0.669 ± 0.52.

CAPQSGKLGG: the amyloid nucleation score came out at 1.01 ± 0.59.

Take GWRKSLNWCVYVGEGASIVV: the amyloid nucleation score amounted to 0.517 ± 0.25.

Substance GMIVVTSGNSR registered an amyloid nucleation score of -0.037 ± 0.42.

Consider YVTCRCRYYLSFVIPIFWKR, for which the amyloid nucleation score was -0.657 ± 0.25.

For the substance TDITKVSGTFNHSMEPIWYT, the amyloid nucleation score result is “inactive”.

The substance SGVHNYSARVG returned an amyloid nucleation score of -0.442 ± 0.46.

Take FSKHNSYGTNINNLFFSLLH: the amyloid nucleation score was determined as 6.19 ± 0.077.

GYCYYVPFMVGP: the amyloid nucleation score was 0.817 ± 0.8.

In turn, LDALVSWSLECGWYESCWSR gave an amyloid nucleation score of -0.025 ± 0.32.

In turn, TVSGDTSRRSRMNFSFYMQR registered an amyloid nucleation score of -0.266 ± 1.1.

GLYHFRVITASKSQMEGFLM came in with an amyloid nucleation score of -0.018 ± 1.1.

KGMNCVCACAINRPYSIVLQ gave an amyloid nucleation score of 1.41 ± 0.15.

In turn, EFRWGFRGVSYLKCTC returned an amyloid nucleation score of 1.2 ± 0.15.

Consider IISPVGVRMAYL, for which the amyloid nucleation score turned out to be 0.176 ± 0.37.

As for FGVIICAMSCQKD, the amyloid nucleation score was 7.501 ± 0.026.

SLVLV displayed an amyloid nucleation score of 0.803 ± 0.47.

The substance SFMALYLSWFSQRDYAMAGS yielded an amyloid nucleation score of 0.639 ± 0.46.

Substance PDVTGKELHF had an amyloid nucleation score of 3.42 ± 0.071.

With DKWAFVRITRQEPPASIRMD, the amyloid nucleation score was -0.939 ± 0.76.

FMTVSDTMFHRIVASPQVPA showed an amyloid nucleation score of 0.87 ± 0.32.

In turn, HTYNLSKR came in with an amyloid nucleation score of -1.1 ± 0.62.

In the case of HMEKWCSSTMSRLLSVQLAK, the amyloid nucleation score came to 0.771 ± 0.29.

In turn, GCDTRHSPLVSNALGLAIAS gave an amyloid nucleation score of -0.052 ± 0.49.

In turn, CNTRRLISMRI gave an amyloid nucleation score of -0.234 ± 0.65.

As for LGDCVSNHSCLSVEHFDLNY, the amyloid nucleation score stood at 4.92 ± 0.11.

Turning to GSCSEHTKLLI, the amyloid nucleation score is -0.455 ± 0.37.

As for WKQEYFG, the amyloid nucleation score was -0.508 ± 0.63.

In turn, PLSGWYQYIRDGVLSVWLSV showed an amyloid nucleation score of 0.713 ± 0.74.

The values are drawn from the supplement of paper PMC12042874.
